Data published in publication PMC8228355, “SERS-Based Aptasensor for Rapid Quantitative Detection of SARS-CoV-2”.

B1: Biotin-RBD-1C (structured_DNA)
DNA: CAGCACCGACCTTGTGCTTTGGGAGTGCTGGTCCAAGGGCGTTAATGGACA

Biological target: RBD of SARS-CoV-2 spike protein (SARS-CoV-2, UniProt P0DTC2 319-541)
Test: BLI; ka ([…]; kd ([…]; RBD 80-1200 nM; […]; BLI on streptavidin sensors, buffer and temperature not stated; […]
Conditions: protein: commercial; label: 5'-biotin

Binder	Kd
B1	13 nM
TTTGGGAGTGCTGGTCCAAGGGCGTTAATGGACA (structured_DNA) [Biotin-RBD-1C-sh]	330 nM
